Reference: patent publication US12662540B2, “Compositions and methods for inhibition of MICA/B shedding” (DANA-FARBER CANCER INSTITUTE, INC., priority 2017, dated 2026)

What was measured:
[1] = test system: murine tumor cell lines (B16F10, CT26, Neuro-2a) expressing full-length MICA or MICB; assay: Shed and surface MICA/MICB in murine tumor cell lines transduced with full-length MICA or MICB; assay type: cell-based, mouse; conditions: B16F10-MICA cells, 24 hours
Excerpt: B16F10, CT26, Neuro-2a, EL4 and RMA-S cell lines were transduced with lentiviral vector pHAGE-CMV-fullEF1a. MICA (allele 009) cDNA or other inserts were placed between NotI and BamHI cloning sites, 3′ to the EF1α promoter and 5′ to the IRES. ZsGreen or luciferase cDNAs were cloned 3′ to the IRES as fluorescence or bioluminescence reporters, respectively. The vector with the ZsGreen reporter was used to compare expression of cDNAs encoding full length MICA, full-length MICB and secreted MICA (Neuro-2a, RMA-S and/or B16F10 cell lines). CT26, EL4 and B16F10 cell lines were transduced with the vector that supported expression of the luciferase reporter. […]
Tumor cells (5×10^4 or 1×10^5 per well, depending on the cell line) were cultured for 24 to 72 hours in 96-well plates (flat-bottom plates for adherent cell lines, U-bottom plates for suspension cell lines). […] MICA or control antibodies were added at different concentrations, and shed MICA/B was then detected in supernatants by ELISA using the Human MICA ELISA kit (Ab59569, Abcam) or Human MICB DuoSet ELISA kit (DY1599, R&D Systems), using the procedures recommended by the manufacturers. […]
MICA and MICB were detected on the cell surface by the PE-conjugated anti-MICA/B antibody (clone 6D4, 320906, Biolegend). […] All samples were acquired in a BD LSR Fortessa flow cytometer, and analyzed by FlowJo V10 software.

RMA-S cell lines = assay: 51Cr release assay with murine NK cells against RMA-S cell lines; assay type: cell-based, mouse
Experimental: Murine NK cells were isolated from the spleen of C57BL/6 Rag1^−/− mice. These cells were enriched by negative selection using a Mouse NK Cell Isolation Kit (130-096-892, Miltenyi Biotech). Cells were then incubated with PE-conjugated anti-NK1.1 and Pacific Blue-conjugated anti-CD3 (Biolegend), and NK cells were sorted using a BD FACS Aria. Purity after sorting was ˜99%. NK cells used for cytotoxicity assays were isolated from mice that had received an intraperitoneal injection of 200 μg Poly(I:C) (InvivoGen) 1 day prior to NK cell isolation.
Target cells were labeled for 1 hour with 100 μCi of ^51[Cr] per 2×10^6 cells in 0.2 ml of media. Subsequently, cells were washed and plated in V-bottom 96-wells plates (5,000 target cells per well). To determine the experimental release, NK cells were added in an equal volume, but at different ratios. […]
For experiments shown in FIGS. 1E, 10, and 13E antibodies were added at the time of the killing assay. […] At the end of the incubation period, plates were centrifuged (2000 rpm, 5 minutes), part of the supernatant was collected, mixed with scintillation fluid, and radioactivity was quantified using a MicroBeta2 reader (Perkin Elmer). Specific killing was calculated using the following formula: 100×(Experimental release−Spontaneous release)/(Maximum release−Spontaneous release).

B16F10-MICA cells = assay: B16F10 metastasis model in immunocompetent mice; assay type: in vivo, C57BL/6 mice; conditions: anti-asGM1, anti-NK1.1 or anti-CD8β
Experimental: The B16F10 cells were transduced with the luciferase-based lentiviral vector to express MICA. B16F10-MICA cells (5×10^5) were injected intravenously into C57BL/6 mice through the tail vein. Fewer tumor cells (4×10^5) were injected into NK cell-deficient mice given that the absence of NK cells results in a very large number of metastases. 7C6 or isotype control antibodies (MPC-11 or C1184, BioXcell, which have mIgG2b and mIgG2a isotypes, respectively) were administered intraperitoneally on days 1, 2, 7 and 10 at a dose of 200 μg per mouse. Antibody blockade and depletion were performed as described previously (24). For antibody-based depletion of CD8 T cells or NK cells, 100 μg per mouse of anti-CD8 (5358, BioXcell), anti-NK1.1 (PK136, BioXcell), and anti-asialo(as)GM1 (Wako Chemicals) were given on days −1, 0, and 7. For antibody blockade, anti-NKG2D (HMG2D, BioXcell) or control IgG (MOPC-21) were given at 200 μg per mouse on days −1, 0, 5, 7 and 10. Blood samples were collected at multiple time points by retro-orbital bleeding under isoflurane anesthesia. Mice were euthanized by CO2 inhalation, lungs were perfused with PBS and fixed in formalin solution, and the number of superficial metastases was counted under a stereomicroscope. Histology was performed by the Rodent Histopathology Core of the Dana-Farber/Harvard Cancer Center using lungs that had not been perfused with PBS.
Macrophages were depleted by intravenous injection of 0.2 ml clodronate liposomes (Encapsula NanoSciences LLC). In the humanized and B16F10-MICA metastasis models, 0.2 ml of clodronate liposomes or control liposomes were injected i.v. (on the same day of tumor cell inoculation and then once weekly).

CT26-MICA = assay: CT26 metastasis model; assay type: in vivo, Balb/c mice; conditions: antibody days 1, 2, 7, 14; count day 21
Experimental: Balb/c wild type mice were injected intravenously with 1×10^6 CT26-MICA, and treated with 7C6-mIgG2b or MPC-11 (isotype) administered intraperitoneally on days 1, 2, 7, and 14. Euthanasia was performed on day 21, followed by lung perfusion with 30% Indian ink through the trachea and fixation in Fekete's fixative. That procedure stains the lungs in black, while the metastases remain white, enabling counting of metastases under a stereomicroscope (24).
Balb/c wild type mice were injected intravenously with 1×10^6 CT26-MICA, and treated with 7C6-mIgG2b or MPC-11 (isotype) administered intraperitoneally on days 1, 2, 7, and 14. Euthanasia was performed on day 21, followed by lung perfusion with 30% Indian ink through the trachea and fixation in Fekete's fixative. That procedure stains the lungs in black, while the metastases remain white, enabling counting of metastases under a stereomicroscope.

B1: 7C6-mIgG2b: 7C6 with parental murine IgG2b Fc (antibody)
VH: QIQLVQSGPELKKPGETVKVSCKASGYMFTNYAMNWVKQAPEKGLKWMGWINTHTGDPTYADDFKGRIAFSLETSASTAYLQINNLKNEDTATYFCVRTYGNYAMDYWGQGTSVTVSSAKTTAPSVYPLAPVCGDTTGSSVTLGCLVKGYFPEPVTLTWNSGSLSSGVHTFPAVLQSDLYTLSSSVTVTSS
VL: DIQMTQTTSSLSASLGDRVTISCSASQDISNYLNWYQQKPDGTVKLLIYDTSILHLGVPSRFSGSGSGTDYSLTISNLEPEDIATYYCQQYSKFPRTFGGGTTLEIK
Question: With B1 as the molecule, how does the “ability to inhibit MICA shedding, 7C6 with distinct Fc regions” value [1] read?
Answer: The value was “does not alter the ability of MICA antibody to inhibit MICA shedding”.

Question: And the “murine NK cell-mediated cytotoxicity against tumor cells expressing full-length MICA” value (RMA-S cell lines; full-length MICA)?
Answer: The value was “enhances NK cell-mediated cytotoxicity”.

Question: And the “murine NK cell-mediated cytotoxicity against tumor cells that release MICA by exocytosis” value (RMA-S cell lines; secreted MICA)?
Answer: The value was “not against tumor cells that release MICA by exocytosis”.

Question: And the “therapeutic activity against lung metastases after NK cell or CD8 T cell depletion” value (B16F10-MICA cells)?
Answer: Its value is “NK cell (anti-asGM1 or anti-NK1.1) but not CD8 T cell (anti-CD8β) depletion abrogated the therapeutic activity”.

Question: And the “activity against CT26-MICA lung metastases” value (CT26-MICA)?
Answer: The value was “has activity against CT26-MICA tumor cells”.
